The source of these data is patent US8173131B2, “Compositions and methods for modulating RSV infection and immunity” (PerkinElmer Health Sciences, Inc., priority 2000, dated 2012).

The target of this test is T1, CX3CR1 (293-CX3CR1 cells) (Homo sapiens, UniProt P49238).
T1 construct: expressed in transfected cells
T1 sequence (P49238 1-355): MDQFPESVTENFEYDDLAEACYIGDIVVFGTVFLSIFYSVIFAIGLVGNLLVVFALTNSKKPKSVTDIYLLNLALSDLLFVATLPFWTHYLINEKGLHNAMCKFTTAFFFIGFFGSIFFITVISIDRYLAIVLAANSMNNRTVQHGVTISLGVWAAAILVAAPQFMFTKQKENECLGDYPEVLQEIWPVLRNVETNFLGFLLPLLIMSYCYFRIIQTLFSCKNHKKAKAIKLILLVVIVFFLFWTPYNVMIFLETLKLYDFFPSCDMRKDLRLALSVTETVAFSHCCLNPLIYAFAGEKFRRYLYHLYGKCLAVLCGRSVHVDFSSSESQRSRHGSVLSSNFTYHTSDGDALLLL
Nature of the test: G glycoprotein and Fkn binding to 293-CX3CR1 cells by flow cytometry. As to conditions: for percent positive staining of CX3CR1-293 cells: representative experiment, FIG. 1. On the procedure: Purified G glycoprotein was examined for binding to 293-CX3CR1 cells^33. A pcDNA 3.1 plasmid containing the CX3CR1 gene and a neomycin resistance gene was used to stably transfect human embryonic kidney (HEK) cells. Neomycin resistance was used for selection and maintenance of plasmid transfection of human embryonic kidney cells.
All binding studies were done on ice and either G glycoprotein or human Fkn (R&D Diagnostics, Minneapolis, […]) containing 1% bovine serum albumin (Sigma) and incubated with the 293-CX3CR1 cells or 293 control cells for 30 min at 4° C. […] For inhibition studies, 100 pM-1 μM human Fkn or G glycoprotein was preincubated with the cells for 30 min at 4° C. Without washing, 100 pM of either Fkn or G glycoprotein was added and incubated for 30 min at 4° C. The cells were washed, blocked with FcγRIII blocking antibody (HB197) for 30 min on ice, washed and stained as appropriate with either an anti-G glycoprotein monoclonal antibody cocktail (132-5B, 132-5G, 130-2G, 232-IF) or a biotinylated anti-G glycoprotein monoclonal antibody cocktail (130-2G, 131-2G) or anti-Fkn monoclonal antibody (51637.11; R&D Diagnostics). Concentrations of 1 μg of anti-G glycoprotein monoclonal antibody (131-2G)^34, rabbit anti-CX3CR1 sera^33, and anti-CX3CR1 monoclonal antibody containing 10 μg/ml heparin were used in all experiments. […] Staining was detected with absorbed FITC-goat anti-mouse (H & L chain) monoclonal antibody (PharMingen, San Diego, Calif.) or streptavidin-PE (PharMingen) using flow cytometry (FACScan, Becton-Dickinson, Mountain View, Calif.). A 76 amino acid ^125I-Fkn polypeptide comprising the […] (NEN, Boston, Mass.) was used in radioligand studies^33. As a control, the void volume following purified G glycoprotein passaged over an anti-G glycoprotein antibody (130-2G) affinity column was examined by flow cytometry for binding to either 293 or 293-CX3CR1 cells.
The receptor for Fkn, CX3CR1, was previously identified and characterized using anti-CX3CR1 rabbit antiserum and CX3CR1-transfected human embryonic kidney cells (293-CX3CR1 cells)^33.
The percent Fkn-maximum binding was calculated using the equation: [% G (or Fkn) 293-CX3CR1]-[% G (or Fkn) 293]/[% Fkn (10 nM) 293-CX3CR1]-[% Fkn (10 nM) 293], where G=G glycoprotein, Fkn=fractalkine, 293-CX3CR1=CX3CR1-transfected 293, 293=untransfected 293. The concentration of G glycoprotein was estimated using a molecular weight of 90 kD.
A general note: Flow cytometry measures light scatter and fluorescence of single cells or particles in a stream.

Where [1] appears, read: 10 nM ligand, 293-CX3CR1 minus 293 binding relative to 10 nM Fkn.

For the molecule “Fkn: CX3C chemokine fractalkine (R&D), ligand of CX3CR1 [reference compound]”, the “Fkn-Maximum Binding (%)” value is reported as 46% (10 pM ligand), 98% (100 pM ligand), 99% (1 nM ligand) and 98% under setting [1]. Further, the “percent positive staining of CX3CR1-293 cells” value (10 nM ligand) worked out at 88%. Where the note is “30 min at 4° C.”, the “concentration saturating 293-CX3CR1 binding” value was 1 to 10 nM.

B1: G glycoprotein: purified G glycoprotein isolated from RSV/A2-infected Vero cells (protein)
chain: MSKNKDQRTAKTLERTWDTLNHLLFISSCLYKLNLKSVAQITLSILAMIISTSLIIAAIIFIASANHKVTPTTAIIQDATSQIKNTTPTYLTQNPQLGISPSNPSEITSQITTILASTTPGVKSTLQSTTVKTKNTTTTQTQPSKPTTKQRQNKPPSKPNNDFHFEVFNFVPCSICSNNPTCWAICKRIPNKKPGKKTTTKPTKKPTLKTTKKDPKPQTTKSKEVPTTKPTEEPTINTTKTNIITTLLTSNTTGNPELTSQMETFHSTSSEGNPSPSQVSTTSEYPSQPSSPPNTPRQ
B1: the “Fkn-Maximum Binding (%)” value is 40% (10 pM ligand), 80% (100 pM ligand), 87% (1 nM ligand) and 88% under setting [1]. Besides, the “percent positive staining of CX3CR1-293 cells” value (10 nM ligand) stood at 84%. Further, the “binding to 293-CX3CR1 cells” value (wheat germ lectin column fraction (G, F glycoprotein) or purified recombinant polyhistidine-tagged G glycoprotein) is recorded as 70%.
